Assay results from the nanobody polyreactivity screen of Harvey et al. (2022).

Assay: yeast display, Sf9 membrane polyspecificity reagent, FACS + sequencing; frameworks hold sequencing errors
Summary of the method: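 Nanobodies from a synthetic yeast display library (Saccharomyces cerevisiae BJ5465), induced 36–48 hours with galactose, were stained 1 hour at 4 °C with 10% biotinylated, detergent-solubilized Sf9 membrane reagent, enriched on streptavidin microbeads, then FACS-sorted. Anti-HA (expression) and streptavidin (reagent binding) fluorescence set low and high (top ~1%) gates. Polyreactivity labels come from the gate of origin. Genes were colony-PCR amplified, MiSeq 2 × 250 sequenced and filtered by CDR length.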

Sequence	polyreactivity (PSR sort gate)
QVQLVESGGGLVQAGGSLRLSCAASGFTFAFYAMGWYRQAPGKERELVAAISRRGGSTTYADSVKGRFTISRDNAKNTVYLQMNSLKPEDTAVYYCAAGWRGGRYRYFAYDYWGQGTQVTVSS	high polyreactivity
QVQLVESGGGLVQAGGSLRLSCAASGFTFAGYAMGWYRQAPGKDRELVAAISWSGGRTYYADSVKGRFTISRDNAKNTVYLQMNSLKPEDTAVYYCAKLTLSSRWYYIYDYWGQGTQVTVSS	high polyreactivity
QVQLVESGGGLVQAGGSLRLSCAASGFTFAGYAMGWYRQAPGKERELVAAISISGGRTYYADSVKGRFTSSRDYAKNTVYLQMNSLKPEDTAVYYCNAASREPSGYDYWGQGTQVTVSS	high polyreactivity
QVQLVESGGGLVQAGGSLRLSCAASGFTFAGYGMGWYRQAPGKERELVAAISSSGGSTYYADSVKGRFTISRDNAKNTVYLQMNSLIPEDTAVYYCAAGRPYGDGDYWGQGTQVNVSS	high polyreactivity
QVQLVESGGGLVQAGGSLRLSCAASGFTFANYAMGWYRQAPGKERELVASITRSGGSTYYADSVKGRFTISRDNAKNTVYLQMNSLKPEDTAVYYCAKDRRRWYYTRDYWGQGTQVTVSS	low polyreactivity
QVQLVESGGGLVQAGGSLRLSCAASGFTFAPNPMGWYRPAPGKEWELVAAITRSGGSTYYADSVKGRFTISRDNAKNTVYLQMYSLKPEDTAVYYCNAGRRGSGYVYWGQGTQVTVSS	high polyreactivity
QVQLVESGGGLVQAGGSLRLSCAASGFTFAPYDMGWYRQAPGKERELVATISWSGARTYYADSVKGRFTISRDNAKNTVYLQMNSLKAEDTAVYYCAAAYSSSKSSGNYYYWGQGTQVTVSS	high polyreactivity
QVQLVESGGGLVQAGGSLRLSCAASGFTFARNAMGWYRQATGKERELVASITQRGGSTNYADSVKVRFTISRDNAQNTVYLQMNSLKPEDTAVYYCNKASQLYYIQGTYSYGYWGQGTQVTVSS	low polyreactivity
QVQLVESGGGLVQAGGSLRLSCAASGFTFARNGMGWYRQATVKEREFVAAITRSGGRTYYADSVKGRFTISRDNAKNTVYLQMNSLKPEDTAVYYCAAATSYGKSEYDYWGQGTQVTVSS	high polyreactivity
QVQLVESGGGLVQAGGSLRLSCAASGFTFARYALGWYRQAPGKERELVAGITYRGGRTYYADSVKGRFTISRDNEKNTVYLQMNRLKPEDTAVYYCARYGPIKYYSWGQGTQVTVSS	high polyreactivity
QVQLVESGGGLVQAGGSLRLSCAASGFTFARYAMGWYRQAPGKERELVAAISRGTTTYYADSVKGRFTISRDNAKNTVYLQMNSLKPEDTAVYYCAARAVSEYFVVPFYYWGQGTQVTVSS	high polyreactivity
QVQLVESGGGLVQAGGSLRLSCAASGFTFARYSMGWYRQAPGKERELVAAISRGGDSTYYADSVKGRFTISRDNAKNTVYLQMNSLKPEDSAVYYCAADISHRGYREYYSWGQGTQVTVSS	high polyreactivity
QVQLVESGGGLVQAGGSLRLSCAASGFTFASNDMGWYRPAPGKERELVAAITKGGGRTYYADSVKGRFTISRDNAKNTVYLLMNSLKPEDTAVYYCAASQLIKYDYWGQGTEVTVSS	low polyreactivity
QVQLVESGGGLVQAGGSLRLSCAASGFTFASYAMGWYRQAPAKEREFVAAITSRGGNTYYADSVKGRFTISRDNAKNTVYLQMNSLKPEDTAVYYCAAKSTYVVSKMNYWGQGTQVTVSS	high polyreactivity
QVQLVESGGGLVQAGGSLRLSCAASGFTFASYAMGWYRQAPGKEREFVAAITRSGGSTYYADSVKGRFTISRDNAKNTVYLQMNSLKPEDTAVYYCNRVTSSEFDYWGQGTQVTVSS	high polyreactivity
QVQLVESGGGLVQAGGSLRLSCAASGFTFASYAMGWYRQAPGKERELVAAISGSGTSTYYADSVKGRFTISRDKAKNTVYLQMNSLKPEHTAVYYCAARRYGYRYDYWGQGTQVTVSS	high polyreactivity
QVQLVESGGGLVQAGGSLRLSCAASGFTFATNAMGWYTPAPGKERELVAVISSGGSTYYADSVKGLFTISRDNAKNTVYLQMNRLKPEDTAVYYCNAGRKVRGALDGYDYWGQGTQVTVSS	high polyreactivity
QVQLVESGGGLVQAGGSLRLSCAASGFTFATYAMGWYRQAPGKERELVAAITSGDRTKYADSVKGRFTISRDNAKNTVYLQMNSLKPEDTAVYYCAATTYKVSTGYGYWGQGTQVTVSS	high polyreactivity
QVQLVESGGGLVQAGGSLRLSCAASGFTFAVFARGWYRQAPGKERELVAAISRTGTRTYYADSVKGRFTISRDNAKNTVYLQMNSLKPEDTAVYYWAADKYRHGYDYWGQGTQVTVSS	low polyreactivity
QVQLVESGGGLVQAGGSLRLSCAASGFTFAVNAMGWYRQAPGKERELVAAISKSGGRTYYADSVKGRFTISRDNAKNTVYLQMNSLKPEDTAVYYCAADGPGYTYDYWGQGTQVTVSS	high polyreactivity
QVQLVESGGGLVQAGGSLRLSCAASGFTFAVNAMGWYRQAPGKERELVAAISKSGGRTYYADSVKGRFTISRDNAKNTVYLQMNSLKPEDTAVYYCAAEGPGYTYDYWGQGTQVTVSS	high polyreactivity
